Here are results for 1 protein from article PMC10512346, “Cleavage of α-1,4-glycosidic linkages by the glycosylphosphatidylinositol-anchored α-amylase AgtA decreases the molecular weight of cell wall α-1,3-glucan in Aspergillus oryzae” (Frontiers in Fungal Biology, 2023).

What all share (test): purified protein
What all share (type): biochemical, Aspergillus oryzae

Substrate in data set [1]: O=[N+]([O-])c1ccc(O[C@H]2O[C@H](CO)[C@@H](O[C@H]3O[C@H](CO)[C@@H](O[C@H]4O[C@H](CO)[C@@H](O[C@H]5O[C@H](CO)[C@@H](O[C@H]6O[C@H](CO)[C@@H](O)[C@H](O)[C@H]6O)[C@H](O)[C@H]5O)[C@H](O)[C@H]4O)[C@H](O)[C@H]3O)[C@H](O)[C@H]2O)cc1
The following applies: 50 mM sodium acetate pH 5.5, 40°C, apparent value, hydrolysis plus transglycosylation, 1.6–100 mM substrate.

Substrate in data set [2]: O=[N+]([O-])c1ccc(O[C@H]2O[C@H](CO)[C@@H](O[C@H]3O[C@H](CO)[C@@H](O[C@H]4O[C@H](CO)[C@@H](O[C@H]5O[C@H](CO)[C@@H](O[C@H]6O[C@H](CO)[C@@H](O[C@H]7O[C@H](CO)[C@@H](O)[C@H](O)[C@H]7O)[C@H](O)[C@H]6O)[C@H](O)[C@H]5O)[C@H](O)[C@H]4O)[C@H](O)[C@H]3O)[C@H](O)[C@H]2O)cc1
The following applies: 50 mM sodium acetate pH 5.5, 40°C, apparent value, hydrolysis plus transglycosylation, 1.6–50 mM substrate.

Substrate in data set [3]: O=[N+]([O-])c1ccc(O[C@H]2O[C@H](CO)[C@@H](O[C@H]3O[C@H](CO)[C@@H](O[C@H]4O[C@H](CO)[C@@H](O[C@H]5O[C@H](CO)[C@@H](O[C@H]6O[C@H](CO)[C@@H](O[C@H]7O[C@H](CO)[C@@H](O[C@H]8O[C@H](CO)[C@@H](O)[C@H](O)[C@H]8O)[C@H](O)[C@H]7O)[C@H](O)[C@H]6O)[C@H](O)[C@H]5O)[C@H](O)[C@H]4O)[C@H](O)[C@H]3O)[C@H](O)[C@H]2O)cc1
The conditions noted are these: 50 mM sodium acetate pH 5.5, 40°C, apparent value, hydrolysis plus transglycosylation, 1.6–50 mM substrate.

Substrate in data set [4]: O=[N+]([O-])c1ccc(O[C@H]2O[C@H](CO)[C@@H](O[C@H]3O[C@H](CO)[C@@H](O[C@H]4O[C@H](CO)[C@@H](O[C@H]5O[C@H](CO)[C@@H](O[C@H]6O[C@H](CO)[C@@H](O[C@H]7O[C@H](CO)[C@@H](O[C@H]8O[C@H](CO)[C@@H](O[C@H]9O[C@H](CO)[C@@H](O)[C@H](O)[C@H]9O)[C@H](O)[C@H]8O)[C@H](O)[C@H]7O)[C@H](O)[C@H]6O)[C@H](O)[C@H]5O)[C@H](O)[C@H]4O)[C@H](O)[C@H]3O)[C@H](O)[C@H]2O)cc1
The conditions noted are these: 50 mM sodium acetate pH 5.5, 40°C, apparent value, hydrolysis plus transglycosylation, 1.6–25 mM substrate.

B1: rAoAgtA (Aspergillus oryzae RIB40) (protein)
chain: ATTAEWKSRSVYQTMTDRFARTDGSTTAPCNTTQGLYCGGTWRGTIDKLDYIQGMGFDAVMISPIVENIEGRVSYGEAYHGYWPLDLYSLNSHFGTHQDLLDLSEALHSRGMYLMMDTVINNMAYMTNGKDPAKNIDYSVFTPFNDSSYFHPYCKITDWNNYTNAQLCQTGDDKVALPDLFTEHEDVQQILEKWAKEIISTYSIDGLRIDAAKHVNPGFLKNFGDAIGAFMTGEVLQQEVDTICKYQNNYIGSVPNYPIYYSVLKAFTLGNTTDLANQVEIMKNSCDDVTALASFSENHDVARFASMTDDMALAKNVLTFTILYDGVPMIYQGQEQHLDGPGTPDNREAIWLTKYNTDAELYKLIAKLNTIRKHAYKLDPNYVSLQTYPIFRGGSELGFRKGVEGRQVVMLLSTQGSNSSAYNLTLPVSFNGGVQVMDVLNCVNYTVNPQSELIVPMDKGEPRVFFPTSLMPGSGLCGYTTANVSFVELKTKGAA
notes: residues 24-518 of 549 (signal peptide 1-23 and C-terminal GPI-anchor region removed), C-terminal PGGGS linker and His6 tag; secreted from Pichia pastoris SMD1168H with alpha-factor signal
A word on the Km: it is the concentration of substrate that gives half-maximal velocity. The term Vmax denotes the rate approached at saturating substrate. What is called kcat is the maximal rate divided by the concentration of active sites. One may read the kcat/Km as the second-order rate constant that governs catalysis at low substrate concentration. For B1, in “purified protein [1]”, the Km was determined as 61.8 mM, the Vmax worked out at 659 µM/min, the kcat came to 60 s⁻¹ and the kcat/Km amounted to 970 M⁻¹ s⁻¹. In “purified protein [2]”, the Km was 45.6 mM, the Vmax was 710 µM/min, the kcat was 64.6 s⁻¹ and the kcat/Km turned out to be 1420 M⁻¹ s⁻¹. In the data set “purified protein [3]”, the Km is given as 28.9 mM, the Vmax was 402 µM/min, the kcat is 36.7 s⁻¹ and the kcat/Km came out at 1270 M⁻¹ s⁻¹. In “purified protein [4]”, the Km came to 25.1 mM, the Vmax is 344 µM/min, the kcat was 31.3 s⁻¹ and the kcat/Km stood at 1250 M⁻¹ s⁻¹.
